Drawing on article PMC2748697, this text covers reduction of the extent of tubulin polymerization for 1 substance.

This experiment concerns the target tubulin (bovine, Cytoskeleton) (bovine) (UniProt Q6B856).

“GST-tagged full-length Capzb2 (1–271) (from UniProt P47757-2 1-272) (natural protein)” returned a reduction of the extent of tubulin polymerization at 0.5, 1 and 10 µM Capzb2 (8%, 16%, 35%; none at 0.1 µM) of 35%.
